Reference: patent US20260053904A1 (BIOATLA, published 2026)

T1: recombinant human EpCAM extracellular domain (human, UniProt P16422 24-265)
T1 construct: extracellular domain; Plate-coated antigen of the ELISAs; also called human EpCAM ECD; recombinant EpCAM antigen
T1 sequence (looked up): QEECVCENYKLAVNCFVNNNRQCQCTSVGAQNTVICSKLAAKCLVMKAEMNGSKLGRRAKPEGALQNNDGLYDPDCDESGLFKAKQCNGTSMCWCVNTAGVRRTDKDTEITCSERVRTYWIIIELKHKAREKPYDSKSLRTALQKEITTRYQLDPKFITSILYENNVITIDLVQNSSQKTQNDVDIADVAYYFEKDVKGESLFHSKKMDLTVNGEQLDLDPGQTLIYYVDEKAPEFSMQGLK

T2: human EpCAM expressed on cells (CHO, Colo205, 293) (human, UniProt P16422 24-314)
T2 construct: whole, on cells; also called CHO cells expressing human EpCAM; Colo205 cells expressing human EpCAM
T2 sequence (looked up): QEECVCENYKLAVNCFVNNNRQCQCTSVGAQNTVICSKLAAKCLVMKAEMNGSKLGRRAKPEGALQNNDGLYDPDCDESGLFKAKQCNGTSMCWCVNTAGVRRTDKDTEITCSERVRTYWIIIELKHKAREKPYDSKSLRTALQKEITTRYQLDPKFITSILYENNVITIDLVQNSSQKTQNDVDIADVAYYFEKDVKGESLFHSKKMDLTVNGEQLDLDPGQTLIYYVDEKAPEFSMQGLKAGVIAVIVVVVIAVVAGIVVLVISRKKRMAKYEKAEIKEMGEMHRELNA

T3: chimeric human/mouse EpCAM-ECD 1 (Homo sapiens (Human), UniProt P16422 24-265)
T3 construct: also called ch1EpCAM-his; chimeric EpCAM-ECD 1
T3 chain: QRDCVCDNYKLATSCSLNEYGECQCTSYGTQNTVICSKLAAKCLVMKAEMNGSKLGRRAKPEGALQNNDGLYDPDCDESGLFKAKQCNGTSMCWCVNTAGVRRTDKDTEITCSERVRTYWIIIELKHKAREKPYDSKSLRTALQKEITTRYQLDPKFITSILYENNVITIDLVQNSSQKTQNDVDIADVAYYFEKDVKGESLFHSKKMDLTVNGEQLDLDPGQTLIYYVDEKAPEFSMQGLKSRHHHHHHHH

T4: mouse EpCAM-ECD with C-terminal His-tag (expressed in CHO cells) (mouse, UniProt Q99JW5 24-266)
T4 construct: extracellular domain
T4 sequence (looked up): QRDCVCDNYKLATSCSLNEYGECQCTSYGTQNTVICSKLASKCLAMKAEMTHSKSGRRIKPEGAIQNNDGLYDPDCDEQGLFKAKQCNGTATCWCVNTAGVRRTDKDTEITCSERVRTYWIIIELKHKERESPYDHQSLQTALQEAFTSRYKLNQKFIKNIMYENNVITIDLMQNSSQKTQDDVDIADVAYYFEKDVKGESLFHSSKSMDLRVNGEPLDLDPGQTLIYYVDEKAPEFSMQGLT

T5: rat EpCAM (rat, UniProt O55159 24-266, limits assumed)
T5 sequence (looked up): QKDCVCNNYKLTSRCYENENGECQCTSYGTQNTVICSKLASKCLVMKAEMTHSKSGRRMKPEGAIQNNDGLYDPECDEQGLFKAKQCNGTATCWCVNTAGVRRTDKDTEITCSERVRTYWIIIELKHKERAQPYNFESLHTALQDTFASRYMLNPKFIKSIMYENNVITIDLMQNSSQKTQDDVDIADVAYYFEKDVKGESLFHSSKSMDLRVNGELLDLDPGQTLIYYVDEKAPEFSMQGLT

T6: mouse EpCAM (mouse, UniProt Q99JW5 24-266)
T6 construct: extracellular domain; also called mouse EpCAM-ECD
T6 sequence (looked up): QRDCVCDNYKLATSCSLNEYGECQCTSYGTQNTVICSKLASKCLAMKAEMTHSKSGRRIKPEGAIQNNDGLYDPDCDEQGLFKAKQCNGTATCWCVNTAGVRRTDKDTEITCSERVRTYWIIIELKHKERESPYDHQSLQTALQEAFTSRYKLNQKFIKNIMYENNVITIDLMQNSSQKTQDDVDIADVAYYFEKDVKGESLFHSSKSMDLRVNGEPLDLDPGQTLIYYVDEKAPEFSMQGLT


Tests used:
[1] = molecular target: T7, cyno EpCAM (recombinant, ELISA antigen) (cynomolgus monkey); test: ELISA, cyno EpCAM, pH 6.0
T7 construct: extracellular domain; also called cynomolgus EpCAM extracellular domain
T7 sequence (Q1WER1 24-265): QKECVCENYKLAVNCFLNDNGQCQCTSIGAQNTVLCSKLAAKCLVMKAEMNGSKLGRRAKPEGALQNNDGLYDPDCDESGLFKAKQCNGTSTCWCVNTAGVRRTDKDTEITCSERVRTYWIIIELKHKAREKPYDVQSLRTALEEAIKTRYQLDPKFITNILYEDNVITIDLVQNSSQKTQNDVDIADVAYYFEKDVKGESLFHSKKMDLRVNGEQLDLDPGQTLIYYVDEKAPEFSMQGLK
Experimental: (§1) The binding activities of the humanized conditionally active anti-EpCAM antibodies to cyno EpCAM were similarly measured. The EC50 for binding to the cyno EpCAM at pH 6.0 and pH 7.4 for the humanized conditionally active anti-EpCAM antibodies are summarized in Table 7.
(§2) The ELISA assay was performed using the following protocol: [0388] 1) Coat ELISA plates with 100 μL of 0.5 μg/mL (06_20_17 and 06_28_17 Experiments) or 1 μg/mL (07_06_17 and 07_11_17 Experiments) recombinant EpCAM antigen in carbonate-bicarbonate coating buffer [0389] 2) Cover plates with sealing film and incubate overnight at 4° C. [0390] 3) Decant plates and tap out residual liquid on a stack of paper towels [0391] […] 5) Add 200 μL of various pH incubation buffers to the wells according to the sample map.

[2] = molecular target: T1, recombinant human EpCAM extracellular …; test: ELISA, human EpCAM, pH 7.4
Experimental: (§3) The binding activities of the humanized conditionally active anti-EpCAM antibodies to human EpCAM were measured by ELISA, using the template antibody BAP-1-5-01-06, as a control. The EC50 values of the humanized conditionally active anti-EpCAM antibodies for binding to human EpCAM at pH 6.0 and pH 7.4 are summarized in Table 5.
as §2

[3] = molecular target: T7, cyno EpCAM (recombinant, ELISA antigen); test: ELISA with pH titration, cyno EpCAM
Experimental: The binding activities of the humanized conditionally active anti-EpCAM antibodies to cyno EpCAM with pH titration was similarly measured by ELISA.
as §2

[4] = molecular target: T2, human EpCAM expressed on cells (CHO, …); test: FACS on Colo205 cells expressing human EpCAM, pH 6.0
Experimental: (§4) Binding activities of the humanized conditionally active anti-EpCAM antibodies to Colo205 cells expressing human EpCAM were measured by FACS at pH 6.0 and pH 7.4. […] The EC50 values for binding to the Colo205 cells expressing human EpCAM by the humanized conditionally active anti-EpCAM antibodies are summarized in Table 9.

[5] = molecular target: T8, cyno EpCAM expressed on 293 cells (cynomolgus monkey); test: FACS on 293 cells expressing cyno EpCAM, pH 7.4
T8 construct: whole, on cells; also called 293 cells expressing cyno EpCAM
T8 sequence (Q1WER1 24-314): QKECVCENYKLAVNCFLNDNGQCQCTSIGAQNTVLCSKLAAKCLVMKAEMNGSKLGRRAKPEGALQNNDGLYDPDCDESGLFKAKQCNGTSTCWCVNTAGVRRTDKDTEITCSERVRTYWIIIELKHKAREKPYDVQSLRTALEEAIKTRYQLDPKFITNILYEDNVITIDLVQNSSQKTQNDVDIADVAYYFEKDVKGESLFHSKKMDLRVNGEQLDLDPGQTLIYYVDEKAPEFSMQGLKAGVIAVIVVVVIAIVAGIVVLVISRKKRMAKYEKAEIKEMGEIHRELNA
Experimental: (§5) A similar FACS analysis was also carried out using 293 cells expressing cyno EpCAM. […] The EC50 values for binding to the 293 cells expressing cyno EpCAM by the humanized conditionally active anti-EpCAM antibodies are summarized in Table 11.

[6] = molecular target: T2, human EpCAM expressed on cells (CHO, …); test: FACS on Colo205 cells expressing human EpCAM, pH 7.4
Experimental: as §4

[7] = molecular target: T1, recombinant human EpCAM extracellular …; test: ELISA with pH titration, human EpCAM
Experimental: The binding activities of the humanized conditionally active anti-EpCAM antibodies to human EpCAM with pH titration were also measured by ELISA.
as §2

[8] = molecular target: T1, recombinant human EpCAM extracellular …; test: ELISA, human EpCAM, pH 6.0
Experimental: as §3, §2

[9] = molecular target: T2, human EpCAM expressed on cells (CHO, …); test: FACS on 293 cells expressing human EpCAM, pH 6.0
Experimental: (§6) A similar FACS analysis was also carried out using 293 cells expressing human EpCAM. […] The EC50 values for binding to the 293 cells expressing human EpCAM by the humanized conditionally active anti-EpCAM antibodies are summarized in Table 10.

[10] = molecular target: T2, human EpCAM expressed on cells (CHO, …); test: FACS on 293 cells expressing human EpCAM, pH 7.4
Experimental: as §6

[11] = molecular target: T8, cyno EpCAM expressed on 293 cells; test: FACS on 293 cells expressing cyno EpCAM, pH 6.0
Experimental: as §5

[12] = molecular target: T7, cyno EpCAM (recombinant, ELISA antigen); test: ELISA, cyno EpCAM, pH 7.4
Experimental: as §1, §2

[13] = molecular target: T3, chimeric human/mouse EpCAM-ECD 1; test: ELISA on purified His-tagged ECDs
Description: (§7) Human, mouse and the four chimeric EpCAM extracellular domains were expressed with a C-terminal His-tag in CHO cells and purified.

[14] = molecular target: T4, mouse EpCAM-ECD with C-terminal His-tag …; test: ELISA on purified His-tagged ECDs
Description: as §7

[15] = molecular target: T5, rat EpCAM; test: hybridoma screening, ELISA
[16] = molecular target: T6, mouse EpCAM; test: hybridoma screening, ELISA

Row | EC50 [1] [µg/mL] | EC50 [2] [µg/mL] | pH inflection point [3] [pH] | EC50 [4] [µg/mL] | EC50 [5] [µg/mL] | EC50 [6] [µg/mL] | pH inflection point [7] [pH] | EC50 [8] [µg/mL] | EC50 [9] [µg/mL] | EC50 [10] [µg/mL] | EC50 [11] [µg/mL] | EC50 [12] [µg/mL] | binding result [13] | binding result [14] | binding result [15] | binding result [16] | Binder
1 | 0.49 | 50 | 6.35 | 0.342 | 11.6 | 0.418 | 6.83 | 0.0134 | 0.129 | 0.154 | 1.6 | 7.17 | no binding | no binding | – | – | BAP-105.4-01-05 (antibody, V domains shown, Humanized) VH: EVQLVQSGAEVKKPGATVKISCKVSGYTFTSYWMHWIRQPPGKGLEWIGYIRPSTGYTEYNQKFKDRFTISRDNSKNTLYLQMNSLRAEDTAVYYCGRGDNWVGFANWGQGTLVTVSS VL: EIVLTQSPDFQSVTPKEKVTITCSASSSISYMHWYQQKPGKAPKLLIYSTSNLASGVPDRFSGSGSGTDFTLKISRVEAEDVGVYYCHQWSTYETFGQGTKVEIK
2 | – | – | – | – | – | – | – | – | – | – | – | – | – | – | no binding | no binding | antibody of hybridoma clone 12C10F12 (antibody, V domains shown) VH: QVQLQQSGAELAKPGASVKVSCKASGYTFTSYWMHWVKQRPGQGLEWIGYIRPSTGYTEYNQKFKDKATLTADKSSSTAYMQLSSLTFEDSAVYYCGRGDNWVGFANWGQGTLVTVSA VL: QIVLTQSPAIMSASLGEEIALTCSASSSISYMHWYQQKSGTSPKLLIYSTSNLASGVPSRFSGSGSGTFYSLTISSVEAEDAADYFCHQWSTYHTFGSGTKLEIK
